T1: CBP-Upf1-FL (S. cerevisiae, UniProt P30771 1-971)
T1 sequence (looked up): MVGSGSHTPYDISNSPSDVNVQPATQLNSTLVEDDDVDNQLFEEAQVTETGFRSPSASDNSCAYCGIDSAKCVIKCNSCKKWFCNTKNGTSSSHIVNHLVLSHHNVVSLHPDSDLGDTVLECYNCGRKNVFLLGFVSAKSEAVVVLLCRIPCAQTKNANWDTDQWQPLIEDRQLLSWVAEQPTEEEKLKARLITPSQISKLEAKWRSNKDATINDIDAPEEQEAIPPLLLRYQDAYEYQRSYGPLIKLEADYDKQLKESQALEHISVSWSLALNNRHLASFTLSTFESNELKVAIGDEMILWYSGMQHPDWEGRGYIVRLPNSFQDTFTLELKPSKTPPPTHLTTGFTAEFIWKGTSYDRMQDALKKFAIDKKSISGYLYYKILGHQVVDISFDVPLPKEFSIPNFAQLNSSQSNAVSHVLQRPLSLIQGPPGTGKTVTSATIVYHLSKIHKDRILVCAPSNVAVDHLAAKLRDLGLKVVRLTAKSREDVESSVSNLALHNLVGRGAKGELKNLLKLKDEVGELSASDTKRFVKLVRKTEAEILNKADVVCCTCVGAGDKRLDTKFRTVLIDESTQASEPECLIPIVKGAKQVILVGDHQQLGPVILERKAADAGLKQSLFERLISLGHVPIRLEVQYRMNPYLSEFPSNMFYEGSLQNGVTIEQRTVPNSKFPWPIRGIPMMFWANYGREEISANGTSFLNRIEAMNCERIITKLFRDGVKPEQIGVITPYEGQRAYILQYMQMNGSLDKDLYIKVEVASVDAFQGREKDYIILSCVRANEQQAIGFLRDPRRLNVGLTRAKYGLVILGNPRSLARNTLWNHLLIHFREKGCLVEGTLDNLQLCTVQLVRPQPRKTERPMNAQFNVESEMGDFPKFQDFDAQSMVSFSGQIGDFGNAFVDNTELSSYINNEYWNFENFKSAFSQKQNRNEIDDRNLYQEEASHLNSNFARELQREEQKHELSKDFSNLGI

T2: CBP-Upf1-CH-HD (S. cerevisiae, UniProt P30771 54-851)
T2 sequence (looked up): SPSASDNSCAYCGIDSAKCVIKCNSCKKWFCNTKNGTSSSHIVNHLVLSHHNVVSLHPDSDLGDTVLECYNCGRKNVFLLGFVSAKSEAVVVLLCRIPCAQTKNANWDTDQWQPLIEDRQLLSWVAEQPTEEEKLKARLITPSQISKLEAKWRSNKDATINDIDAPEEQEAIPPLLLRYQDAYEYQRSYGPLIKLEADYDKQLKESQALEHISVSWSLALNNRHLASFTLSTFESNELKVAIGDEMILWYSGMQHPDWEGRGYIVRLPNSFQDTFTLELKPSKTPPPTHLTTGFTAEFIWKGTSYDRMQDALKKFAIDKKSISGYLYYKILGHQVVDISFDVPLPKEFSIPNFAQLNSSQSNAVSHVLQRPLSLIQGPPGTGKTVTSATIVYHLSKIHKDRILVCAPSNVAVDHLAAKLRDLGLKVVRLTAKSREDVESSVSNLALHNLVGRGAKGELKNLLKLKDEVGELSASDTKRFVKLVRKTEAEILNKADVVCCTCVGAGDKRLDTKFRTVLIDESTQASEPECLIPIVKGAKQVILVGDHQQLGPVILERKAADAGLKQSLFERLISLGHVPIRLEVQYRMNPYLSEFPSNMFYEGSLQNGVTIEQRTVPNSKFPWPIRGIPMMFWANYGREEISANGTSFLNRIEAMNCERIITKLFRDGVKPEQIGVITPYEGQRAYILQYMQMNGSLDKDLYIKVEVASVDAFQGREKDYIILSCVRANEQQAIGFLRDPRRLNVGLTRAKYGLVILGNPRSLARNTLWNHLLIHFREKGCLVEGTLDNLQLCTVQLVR

T3: CBP-Upf1-HD-Ct (S. cerevisiae, UniProt P30771 221-971)
T3 sequence (looked up): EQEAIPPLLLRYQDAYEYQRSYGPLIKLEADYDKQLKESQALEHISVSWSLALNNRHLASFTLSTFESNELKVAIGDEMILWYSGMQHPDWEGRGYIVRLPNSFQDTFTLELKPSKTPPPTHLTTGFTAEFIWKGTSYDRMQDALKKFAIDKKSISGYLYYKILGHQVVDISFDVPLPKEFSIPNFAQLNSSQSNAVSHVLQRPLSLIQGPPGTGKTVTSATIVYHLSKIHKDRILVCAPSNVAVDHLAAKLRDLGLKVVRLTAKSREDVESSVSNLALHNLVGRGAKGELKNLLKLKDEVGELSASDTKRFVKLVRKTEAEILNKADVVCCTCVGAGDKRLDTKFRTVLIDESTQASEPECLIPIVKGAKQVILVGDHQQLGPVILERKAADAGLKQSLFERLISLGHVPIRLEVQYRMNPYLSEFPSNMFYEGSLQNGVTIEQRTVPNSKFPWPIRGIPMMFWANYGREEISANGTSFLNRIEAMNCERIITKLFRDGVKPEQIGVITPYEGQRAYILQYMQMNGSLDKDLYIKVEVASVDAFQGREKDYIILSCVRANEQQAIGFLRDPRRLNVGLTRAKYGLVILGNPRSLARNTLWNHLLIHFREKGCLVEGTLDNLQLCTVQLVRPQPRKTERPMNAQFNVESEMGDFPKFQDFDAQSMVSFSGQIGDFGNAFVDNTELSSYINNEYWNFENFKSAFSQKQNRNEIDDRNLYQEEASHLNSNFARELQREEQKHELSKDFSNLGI

T4: CBP-Upf1-HD (S. cerevisiae, UniProt P30771 221-851)
T4 sequence (looked up): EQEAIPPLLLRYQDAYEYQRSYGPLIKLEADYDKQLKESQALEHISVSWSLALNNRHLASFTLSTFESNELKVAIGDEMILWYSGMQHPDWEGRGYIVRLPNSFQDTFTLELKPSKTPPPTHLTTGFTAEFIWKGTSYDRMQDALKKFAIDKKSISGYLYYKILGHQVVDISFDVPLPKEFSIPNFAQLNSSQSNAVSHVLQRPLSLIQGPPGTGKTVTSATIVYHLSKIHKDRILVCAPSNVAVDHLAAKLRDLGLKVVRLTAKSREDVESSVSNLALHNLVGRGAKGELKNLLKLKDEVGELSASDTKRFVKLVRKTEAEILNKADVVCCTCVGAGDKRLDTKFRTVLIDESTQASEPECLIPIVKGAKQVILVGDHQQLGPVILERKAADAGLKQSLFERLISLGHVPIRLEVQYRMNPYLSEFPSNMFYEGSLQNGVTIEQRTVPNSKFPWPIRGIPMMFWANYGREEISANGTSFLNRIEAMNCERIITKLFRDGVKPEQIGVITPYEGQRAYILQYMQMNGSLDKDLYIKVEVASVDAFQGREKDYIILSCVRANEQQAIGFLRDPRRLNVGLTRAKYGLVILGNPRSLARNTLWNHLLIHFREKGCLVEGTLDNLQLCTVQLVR


How the values were obtained:
Test in all cases: pull-down
CBP-Upf1-FL = target: T1, CBP-Upf1-FL
CBP-Upf1-CH-HD = target: T2, CBP-Upf1-CH-HD
CBP-Upf1-HD-Ct = target: T3, CBP-Upf1-HD-Ct
CBP-Upf1-HD = target: T4, CBP-Upf1-HD

Row | Binder | binding result (CBP-Upf1-FL) | binding result (CBP-Upf1-CH-HD) | binding result (CBP-Upf1-HD-Ct) | binding result (CBP-Upf1-HD)
1 | GST-Dcp2-UBD (domain or fragment, S. cerevisiae, UniProt P53550 434-720, looked up) GYSSSSPGQLLDILNSKKPDSNVQSSKKPKLKILQRGTDLNSIKQNNNDETAHSNSQALLDLLKKPTSSQKIHASKPDTSFLPNDSVSGIQDAEYEDFESSSDEEVETARDERNSLNVDIGVNVMPSEKDSRRSQKEKPRNDASKTNLNASAESNSVEWGPGKSSPSTQSKQNSSVGMQNKYRQEIHIGDSDAYEVFESSSDEEDGKKLEELEQTQDNSKLISQDILKENNFQDGEVPHRDMPTESNKSINETVGLSSTTNTVKKVPKVKILKRGETFASLANDKKA | binds | binds | – | –
2 | GST-Ebs1 (aa 1-591) (domain or fragment, S. cerevisiae, UniProt Q03466 1-591, looked up) MEPSNTQKEDLPTAFNGIKSQLNSILKSNQLFQDYALLNGFLAFVHSKLNAAILTSIESQCGKSFAADLDSFDQSSISSILDFSWESVHYPIFKWFQMWRNYILFEKENKKQQTKFIDFRKMNSKMLKFFKTVQNFYVNVINTVYKKYDISVLLPKRIIQDLKLSDIENTTNVGDILAVKTFNSSSPLAHLIPTLFHRCLLFLGTAYRYKTLLEEISNKYSISNFKKSLDFFRLASLVLPSAGETYSQAGAIFLQTGNLGIAVFNFVKGMMTKMPSPVSIKNFGALMVDNKSSLNRSLHTTIMNTYLQESKGPRTPAKEILEFYFLGLFGSVWSPTSWRDDTKPNQLNNGIKLRHLENALYETMSARYLNNIKTIFHNLIITIGGFHLLLKRRSDVSAKTLKDLRSNELDYLNFAFKYIAHILNDIVKESWSENPEVSEILGMVRIINCWIKANPMVLQYSQSNLEFVNALAYLINDIVKKKPSPSFSITEHIPKRTYWFEEDLMVKGLSFVNFQLSDFDDYEKILEMDHSLDRLIGNPPLCDKLSASSEMLLRLQAVVNISSQLLQNNNCGVEWSDNKSRYIFNKKIGFK | binds | – | – | –
3 | HisSUMO-tagged Ebs1 (aa 1-591) (domain or fragment, S. cerevisiae, UniProt Q03466 1-591, looked up) MEPSNTQKEDLPTAFNGIKSQLNSILKSNQLFQDYALLNGFLAFVHSKLNAAILTSIESQCGKSFAADLDSFDQSSISSILDFSWESVHYPIFKWFQMWRNYILFEKENKKQQTKFIDFRKMNSKMLKFFKTVQNFYVNVINTVYKKYDISVLLPKRIIQDLKLSDIENTTNVGDILAVKTFNSSSPLAHLIPTLFHRCLLFLGTAYRYKTLLEEISNKYSISNFKKSLDFFRLASLVLPSAGETYSQAGAIFLQTGNLGIAVFNFVKGMMTKMPSPVSIKNFGALMVDNKSSLNRSLHTTIMNTYLQESKGPRTPAKEILEFYFLGLFGSVWSPTSWRDDTKPNQLNNGIKLRHLENALYETMSARYLNNIKTIFHNLIITIGGFHLLLKRRSDVSAKTLKDLRSNELDYLNFAFKYIAHILNDIVKESWSENPEVSEILGMVRIINCWIKANPMVLQYSQSNLEFVNALAYLINDIVKKKPSPSFSITEHIPKRTYWFEEDLMVKGLSFVNFQLSDFDDYEKILEMDHSLDRLIGNPPLCDKLSASSEMLLRLQAVVNISSQLLQNNNCGVEWSDNKSRYIFNKKIGFK | binds | – | – | –

Further lines, results first:

Row | binding result (CBP-Upf1-FL) | binding result (CBP-Upf1-CH-HD) | binding result (CBP-Upf1-HD-Ct) | binding result (CBP-Upf1-HD) | Binder
4 | binds | binds | binds | binds | TS-Nmd4-His (natural protein, S. cerevisiae, UniProt Q12129 1-218, looked up) MTQYNFIIDASAFEKGLGNIKRWCSDCTEAVTLNFYIPTFTLNELDFLQQRRKSFAARESLKFIDRLDDSKFANLKVFIEFPEVLDIILWSDVMEHNDSSGKINIAKLPKRLKNLLKSCIYKCYLEGNEGLHWFLISEDPQIREMAMQCNIPSCSIVDVDSILSKDMNDKSFRESEKFNNMMLKNGTKEESENGREIIRTNFNKTVYASRGTGELWSP
5 | binds | binds | – | – | GST-Dcp2-UBD1 (domain or fragment, S. cerevisiae, UniProt P53550 434-508, looked up) GYSSSSPGQLLDILNSKKPDSNVQSSKKPKLKILQRGTDLNSIKQNNNDETAHSNSQALLDLLKKPTSSQKIHAS

— paper doi:10.1101/2024.12.18.629111 (bioRxiv, 2024)
